Measured values: patent US20230340127A1 (SANFORD BURNHAM PREBYS MEDICAL DISCOVERY INSTITUTE, published 2023)

B1: CUL4B (endogenous) (other, UniProt Q13620 1-913, looked up)
chain: MMSQSSGSGDGNDDEATTSKDGGFSSPSPSAAAAAQEVRSATDGNTSTTPPTSAKKRKLNSSSSSSSNSSNEREDFDSTSSSSSTPPLQPRDSASPSTSSFCLGVSVAASSHVPIQKKLRFEDTLEFVGFDAKMAEESSSSSSSSSPTAATSQQQQLKNKSILISSVASVHHANGLAKSSTTVSSFANSKPGSAKKLVIKNFKDKPKLPENYTDETWQKLKEAVEAIQNSTSIKYNLEELYQAVENLCSYKISANLYKQLRQICEDHIKAQIHQFREDSLDSVLFLKKIDRCWQNHCRQMIMIRSIFLFLDRTYVLQNSMLPSIWDMGLELFRAHIISDQKVQNKTIDGILLLIERERNGEAIDRSLLRSLLSMLSDLQIYQDSFEQRFLEETNRLYAAEGQKLMQEREVPEYLHHVNKRLEEEADRLITYLDQTTQKSLIATVEKQLLGEHLTAILQKGLNNLLDENRIQDLSLLYQLFSRVRGGVQVLLQQWIEYIKAFGSTIVINPEKDKTMVQELLDFKDKVDHIIDICFLKNEKFINAMKEAFETFINKRPNKPAELIAKYVDSKLRAGNKEATDEELEKMLDKIMIIFRFIYGKDVFEAFYKKDLAKRLLVGKSASVDAEKSMLSKLKHECGAAFTSKLEGMFKDMELSKDIMIQFKQYMQNQNVPGNIELTVNILTMGYWPTYVPMEVHLPPEMVKLQEIFKTFYLGKHSGRKLQWQSTLGHCVLKAEFKEGKKELQVSLFQTLVLLMFNEGEEFSLEEIKQATGIEDGELRRTLQSLACGKARVLAKNPKGKDIEDGDKFICNDDFKHKLFRIKINQIQMKETVEEQASTTERVFQDRQYQIDAAIVRIMKMRKTLSHNLLVSEVYNQLKFPVKPADLKKRIESLIDRDYMERDKENPNQYNYIA
notes: also called CRL4 component
B2: FBXO44 (endogenous F-box protein FBXO44) (other, human, UniProt Q9H4M3 1-255, looked up)
chain: MAVGNINELPENILLELFTHVPARQLLLNCRLVCSLWRDLIDLVTLWKRKCLREGFITEDWDQPVADWKIFYFLRSLHRNLLHNPCAEEGFEFWSLDVNGGDEWKVEDLSRDQRKEFPNDQVKKYFVTSYYTCLKSQVVDLKAEGYWEELMDTTRPDIEVKDWFAARPDCGSKYQLCVQLLSSAHAPLGTFQPDPATIQQKSDAKWREVSHTFSNYPPGVRYIWFQHGGVDTHYWAGWYGPRVTNSSITIGPPLP
notes: Endogenous protein in cell lysates or chromatin fractions; also called FBX044

Columns and labels:
[1] = target: T1, DDB1 (endogenous) (UniProt Q16531 2-1140); experiment: co-IP of endogenous CUL4B with DDB1 (anti-CUL4B antibody), control vs FBXO44 KD cells (FIG. 3G)
T1 construct: also called CRL4 component
T1 sequence (Q16531 2-1140 limits assumed): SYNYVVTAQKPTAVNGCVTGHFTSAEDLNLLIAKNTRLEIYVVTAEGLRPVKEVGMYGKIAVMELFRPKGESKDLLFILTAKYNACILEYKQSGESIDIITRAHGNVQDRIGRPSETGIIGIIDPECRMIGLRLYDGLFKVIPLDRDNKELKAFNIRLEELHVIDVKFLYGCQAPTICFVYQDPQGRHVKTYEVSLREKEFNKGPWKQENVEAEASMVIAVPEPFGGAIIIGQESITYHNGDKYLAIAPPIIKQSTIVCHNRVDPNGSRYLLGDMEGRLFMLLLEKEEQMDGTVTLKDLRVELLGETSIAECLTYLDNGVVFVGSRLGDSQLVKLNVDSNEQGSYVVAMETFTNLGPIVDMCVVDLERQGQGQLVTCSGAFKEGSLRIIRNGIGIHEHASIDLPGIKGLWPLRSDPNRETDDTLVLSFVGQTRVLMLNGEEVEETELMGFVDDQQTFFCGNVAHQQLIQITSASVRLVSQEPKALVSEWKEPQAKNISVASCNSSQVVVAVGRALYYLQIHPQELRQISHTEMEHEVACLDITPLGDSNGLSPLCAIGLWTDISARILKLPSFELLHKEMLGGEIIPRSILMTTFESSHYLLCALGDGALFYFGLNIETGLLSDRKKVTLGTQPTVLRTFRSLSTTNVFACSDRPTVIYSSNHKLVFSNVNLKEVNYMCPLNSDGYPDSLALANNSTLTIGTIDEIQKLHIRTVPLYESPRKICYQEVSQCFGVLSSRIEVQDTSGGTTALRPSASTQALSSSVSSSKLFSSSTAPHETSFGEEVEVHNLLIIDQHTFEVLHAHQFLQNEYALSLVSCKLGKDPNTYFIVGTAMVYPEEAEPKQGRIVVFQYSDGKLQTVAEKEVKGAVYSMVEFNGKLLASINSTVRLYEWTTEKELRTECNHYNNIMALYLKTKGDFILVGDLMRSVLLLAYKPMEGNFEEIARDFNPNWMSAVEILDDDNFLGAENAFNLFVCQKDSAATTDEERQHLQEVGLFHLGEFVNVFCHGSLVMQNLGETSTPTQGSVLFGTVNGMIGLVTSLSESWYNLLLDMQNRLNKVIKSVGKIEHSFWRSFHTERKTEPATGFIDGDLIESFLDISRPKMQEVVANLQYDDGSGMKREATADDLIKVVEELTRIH
Description: (§1) Immunoprecipitation or co-immunoprecipitation (IP or co-IP): for IP, cells were lysed in IP buffer (50 mM Tris-HCl [pH 7.4], 125 mM NaCl, 1 mM EDTA, 0.1% Triton X-100) with inhibitors (50 mM NaF, 1 mM PMSF, 1 mM Na₃VO₄, 1 μg/mL Aprotinin, 1 μg/mL Leupeptin, 1 μg/mL Pepstatin) followed by sonication and centrifugation to clear insoluble debris. Lysates were then incubated with protein G agarose beads and IgG antibody of the same species as the IP antibody for 2 hr at 4° C. to reduce non-specific binding. The cleared lysates were then incubated with IP antibody overnight at 4° C. Specifically, for Flag IP, 5 μg of anti-Flag antibody (Sigma-Aldrich no. F7425) was used for 2500 μg of protein lysate. For Myc IP, anti-Myc antibody (Cell Signaling Technology no. 2276) was used at 1:1000 dilution. For FBXO44 IP, 5 μL of anti-FBXO44 antibody (Sigma-Aldrich no. HPA003363) was used for 10⁶ cells. Beads were washed with IP buffer, boiled in 1×SDS gel loading buffer, and subjected to electrophoresis.
(§2) Next, to characterize FBXO44's molecular interactions with interactions with SUV39H1, CRL4RBBP4/7, and Mi-2/NuRD, Co-IP experiments were performed as described in example 3. For SUV39H1 IP, anti-SUV39H1 antibody (Millipore no. 05-615) was used at 1:100 dilution. For CUL4B IP, 2 μg of anti-CUL4B antibody (Proteintech no. 12916-1-AP) was used for 2500 μg of protein lysate. […]

[2] = target: CUL1 (endogenous) (UniProt Q13616 1-776); experiment: IP from chromatin fractions, immunoblot (FIG. 1F)
Sequence of CUL1 (endogenous) (Q13616 whole entry): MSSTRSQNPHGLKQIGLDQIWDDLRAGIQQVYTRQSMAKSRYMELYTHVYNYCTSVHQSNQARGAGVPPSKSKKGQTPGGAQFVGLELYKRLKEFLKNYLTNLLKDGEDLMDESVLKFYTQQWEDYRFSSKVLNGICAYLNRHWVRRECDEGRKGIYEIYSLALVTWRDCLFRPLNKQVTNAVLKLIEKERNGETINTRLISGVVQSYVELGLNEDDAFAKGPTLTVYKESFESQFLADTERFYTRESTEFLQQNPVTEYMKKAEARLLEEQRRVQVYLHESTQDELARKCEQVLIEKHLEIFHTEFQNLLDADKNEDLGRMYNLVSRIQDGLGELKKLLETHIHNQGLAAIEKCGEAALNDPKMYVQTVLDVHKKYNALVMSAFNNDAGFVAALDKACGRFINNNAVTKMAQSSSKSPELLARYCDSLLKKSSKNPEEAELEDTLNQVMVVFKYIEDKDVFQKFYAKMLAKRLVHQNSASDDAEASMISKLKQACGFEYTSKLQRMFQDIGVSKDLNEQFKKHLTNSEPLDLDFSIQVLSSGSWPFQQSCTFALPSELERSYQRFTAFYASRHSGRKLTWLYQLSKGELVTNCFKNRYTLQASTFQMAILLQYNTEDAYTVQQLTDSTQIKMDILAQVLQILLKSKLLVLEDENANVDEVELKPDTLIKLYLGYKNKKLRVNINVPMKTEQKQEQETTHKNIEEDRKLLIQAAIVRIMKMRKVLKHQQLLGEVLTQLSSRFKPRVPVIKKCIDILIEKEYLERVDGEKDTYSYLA

[3] = target: Flag-Histone H3.1 (UniProt P68431 1-136); experiment: co-IP of endogenous FBXO44 with Flag-Histone H3.1 or H3.3 (FIG. 5B)
Description: as §1

[4] = target: T2, RBBP4 (endogenous) (UniProt Q09028 2-425); experiment: co-IP of endogenous FBXO44 in MDA-MB-231 cells, immunoblot (FIG. 4A)
T2 construct: also called DCAF RBBP4
T2 sequence (Q09028 2-425 limits assumed): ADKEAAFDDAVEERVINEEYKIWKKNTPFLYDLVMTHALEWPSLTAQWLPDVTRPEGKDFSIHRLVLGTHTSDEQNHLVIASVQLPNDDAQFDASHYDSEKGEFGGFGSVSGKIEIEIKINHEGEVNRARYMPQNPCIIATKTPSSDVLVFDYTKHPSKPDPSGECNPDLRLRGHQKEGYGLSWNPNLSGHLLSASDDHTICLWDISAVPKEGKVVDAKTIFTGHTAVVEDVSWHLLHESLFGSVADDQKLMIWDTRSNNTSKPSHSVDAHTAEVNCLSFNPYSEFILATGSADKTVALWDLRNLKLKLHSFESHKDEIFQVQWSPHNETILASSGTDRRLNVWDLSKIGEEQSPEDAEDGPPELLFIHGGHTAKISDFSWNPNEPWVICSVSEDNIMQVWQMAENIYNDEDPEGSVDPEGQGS

[5] = target: T3, RBBP7 (endogenous) (UniProt Q16576 2-425); experiment: as above
T3 construct: also called DCAF RBBP7
T3 sequence (Q16576 2-425 limits assumed): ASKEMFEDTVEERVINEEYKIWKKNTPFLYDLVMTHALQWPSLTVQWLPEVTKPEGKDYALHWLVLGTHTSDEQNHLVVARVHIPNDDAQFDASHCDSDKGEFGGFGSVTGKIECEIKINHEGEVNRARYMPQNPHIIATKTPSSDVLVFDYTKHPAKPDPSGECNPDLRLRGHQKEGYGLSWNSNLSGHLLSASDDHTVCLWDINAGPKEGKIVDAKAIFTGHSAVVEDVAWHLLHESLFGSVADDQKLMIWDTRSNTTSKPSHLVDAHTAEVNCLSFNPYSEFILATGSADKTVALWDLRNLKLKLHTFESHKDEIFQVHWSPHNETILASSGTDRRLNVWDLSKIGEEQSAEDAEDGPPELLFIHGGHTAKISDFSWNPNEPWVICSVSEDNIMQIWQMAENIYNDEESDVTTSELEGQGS

[6] = target: T4, GATAD2B (endogenous) (UniProt Q8WXI9 1-593); experiment: co-IP of endogenous FBXO44, control vs SUV39H1 KD (FIG. 3I; its legend names GATAD2A)
T4 construct: also called Mi-2/NuRD component
T4 sequence (Q8WXI9 whole entry): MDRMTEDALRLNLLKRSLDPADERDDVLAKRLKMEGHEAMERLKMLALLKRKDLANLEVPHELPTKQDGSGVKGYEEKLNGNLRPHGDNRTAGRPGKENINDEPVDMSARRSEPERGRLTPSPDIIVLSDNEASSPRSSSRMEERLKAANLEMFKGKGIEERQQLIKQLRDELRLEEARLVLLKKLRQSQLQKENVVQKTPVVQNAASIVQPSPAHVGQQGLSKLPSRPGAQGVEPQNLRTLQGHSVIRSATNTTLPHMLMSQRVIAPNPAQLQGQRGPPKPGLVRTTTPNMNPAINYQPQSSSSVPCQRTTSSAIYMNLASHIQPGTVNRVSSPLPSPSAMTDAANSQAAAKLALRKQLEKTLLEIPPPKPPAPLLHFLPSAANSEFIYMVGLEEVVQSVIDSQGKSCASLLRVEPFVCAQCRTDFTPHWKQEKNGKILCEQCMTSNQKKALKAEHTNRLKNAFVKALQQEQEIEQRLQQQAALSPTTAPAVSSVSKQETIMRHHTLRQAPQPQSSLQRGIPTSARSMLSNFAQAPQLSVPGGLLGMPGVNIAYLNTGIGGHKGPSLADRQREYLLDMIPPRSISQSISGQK
Description: as §1, §2

[7] = target: B1; experiment: co-IP of endogenous FBXO44 in MDA-MB-231 cells, immunoblot; CRL4 components named CUL4A/CUL4B in the legend of FIG. 4A

Measured: binding result

B1
binds: [1]

B2
not listed: [1]
binds: all other assays above
